Measurements: patent US20240368260A1 (INSTITUT NATIONAL DE LA SANTE ET DE LA RECHERCHE MEDICALE, published 2024)
Numbering of substitutions follows the chain as printed.

T1: recombinant human βIG-H3 (human, UniProt Q15582 24-683)
T1 construct: Bought recombinant protein; also called rhβIG-H3; rhbIG-H3
T1 sequence (looked up): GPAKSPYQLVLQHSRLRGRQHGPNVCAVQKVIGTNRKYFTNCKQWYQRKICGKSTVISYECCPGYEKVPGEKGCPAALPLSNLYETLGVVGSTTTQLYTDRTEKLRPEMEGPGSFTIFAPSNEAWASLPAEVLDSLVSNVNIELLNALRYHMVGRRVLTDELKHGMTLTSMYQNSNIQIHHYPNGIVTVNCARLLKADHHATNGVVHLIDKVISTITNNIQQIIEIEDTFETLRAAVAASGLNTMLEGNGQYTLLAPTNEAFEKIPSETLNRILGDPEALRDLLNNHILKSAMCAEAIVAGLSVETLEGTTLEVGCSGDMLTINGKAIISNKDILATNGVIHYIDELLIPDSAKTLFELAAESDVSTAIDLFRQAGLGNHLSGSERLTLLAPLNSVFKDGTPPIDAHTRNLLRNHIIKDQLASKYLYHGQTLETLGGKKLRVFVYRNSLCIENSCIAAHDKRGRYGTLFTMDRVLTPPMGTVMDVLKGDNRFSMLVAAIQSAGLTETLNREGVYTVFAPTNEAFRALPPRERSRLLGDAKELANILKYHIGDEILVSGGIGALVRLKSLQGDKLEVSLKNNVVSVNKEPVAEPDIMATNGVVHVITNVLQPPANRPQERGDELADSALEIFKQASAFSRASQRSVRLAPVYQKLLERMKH

B1: Humanized 18B3 B (H330-V1/L41-V1) (antibody, human IgG1, kappa, V domains shown)
VH: QVQLVESGGGVVQPGGSLRLSCAASGFTFSDYYMYWVRQAPGKGLEWVATISDGGIYKYYADSVKGRFTISRDSSKNTLYLQMNSLRAEDTAVYYCVRGWDRYDSWFACWGQGTTVTVSS
VL: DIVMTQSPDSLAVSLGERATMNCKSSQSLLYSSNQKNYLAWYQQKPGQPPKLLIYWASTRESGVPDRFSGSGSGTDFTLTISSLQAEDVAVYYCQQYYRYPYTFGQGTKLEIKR
notes: also called H-330/L-41; H330/L41
B2: Humanized 18B3 E (H330-V1/L228-V1) (antibody, human IgG1, kappa, V domains shown)
VH: B1 VH
VL: DIVMTQSPLSLPVTPGEPASMSCRSSQSLLYSSNQKNYLAWYLQKPGQSPQLLIYWGSTRESGVPDRFSGSGSGTDFTLKISRVEAEDVGVYYCQQYYRYPYTFGQGTKLEIKR
notes: also called H330/L228
B3: 18B3 H330-V1.2/L228-V1 (antibody, human IgG1, kappa, V domains shown)
VH: B1 VH with C109S
VL: B2 VL
notes: also called H-330/L-228 V1.2
B4: 18B3 H330-V1.2/L41-V1 (antibody, human IgG1, kappa, V domains shown)
VH: B1 VH with C109S
VL: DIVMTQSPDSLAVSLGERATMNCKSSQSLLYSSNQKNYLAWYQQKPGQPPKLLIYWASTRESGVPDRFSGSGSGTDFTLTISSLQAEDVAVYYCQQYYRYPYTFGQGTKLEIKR
notes: also called H-330/L-41 V1.2; H330C102S/L-41
B5: Humanized 18B3 D (H311-V1/L228-V1) (antibody, human IgG1, kappa, V domains shown)
VH: B1 VH with V11L, Q13K, V37I, K58I, S75A, T78S
VL: B2 VL
notes: also called H311/L228
B6: Humanized 18B3 A (H311-V1/L41-V1) (antibody, human IgG1, kappa, V domains shown)
VH: B1 VH with V11L, Q13K, V37I, K58I, S75A, T78S
VL: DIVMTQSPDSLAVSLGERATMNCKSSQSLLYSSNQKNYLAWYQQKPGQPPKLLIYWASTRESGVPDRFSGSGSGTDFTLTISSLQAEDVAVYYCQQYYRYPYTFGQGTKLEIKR
notes: also called H311/L41
B7: Chimeric huIgG1 k 18B3 (antibody, V domains shown)
VH: EVQLVESGGGLVKPGGSLKLSCAASGFTFSDYYMYWVRQTPEKRLEWVATISDGGIYTYYPDSVKGRFTISRDSAKNNLYLQMTSLKSDDTAMYYCVRGWDRYDSWFACWGQGTLVTVSA
VL: DIVMSQSPSSLVVSAGEKVTMTCKSSQSLLYSSNQKNYLAWYRQKPGQSPKLLIYWASTRESGVPDRFTGSGSGTDFTLTISSVKAEDLAVYYCQQYYRYPYTFGGGTKLEIKR
notes: also called ch18B3; 18B3 chim
B8: Mouse monoclonal 18B3 (antibody, V domains shown)
VH: B7 VH
VL: DIVMSQSPSSLVVSAGEKVTMTCKSSQSLLYSSNQKNYLAWYRQKPGQSPKLLIYWASTRESGVPDRFTGSGSGTDFTLTISSVKAEDLAVYYCQQYYRYPYTFGGGTKLEIK
notes: Mouse IgG1/k from hybridoma; also called m18B3; murine 18B3 mAb
B9: H-169/L-315 (antibody, human IgG1, kappa, V domains shown)
VH: QVQLVQSGAEVKKPGSSVKVSCKASGFTFSDYYMYWVRQAPGQGLEWVGTISDGGIYAYYAQKVQGRFTITRDSSTSTLYLELSSLRSEDTAVYYCVRGWDRYDSWFACWGQGTTVTVSS
VL: EIVMTQSPATLSVSPGERATMSCRASQSLLYSSNQKNYLAWYQQKPGQAPRLLIYWASTRETGIPARFSGSGSGTEFTLTISSLQSEDFAVYYCQQYYRYPYTFGQGTKLEIKR
B10: H-169/L-228 (antibody, human IgG1, kappa, V domains shown)
VH: B9 VH
VL: B2 VL
B11: H-311/L-315 (antibody, human IgG1, kappa, V domains shown)
VH: B1 VH with V11L, Q13K, V37I, K58I, S75A, T78S
VL: B9 VL
B12: H-169/L-41 (antibody, human IgG1, kappa, V domains shown)
VH: B9 VH
VL: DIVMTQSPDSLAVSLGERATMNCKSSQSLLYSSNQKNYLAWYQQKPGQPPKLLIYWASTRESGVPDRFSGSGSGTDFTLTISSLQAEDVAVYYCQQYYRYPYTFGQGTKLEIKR
B13: H-330/L-315 (antibody, human IgG1, kappa, V domains shown)
VH: B1 VH
VL: B9 VL

Key:
recombinant human βIG-H3 [1] = target: T1, recombinant human βIG-H3; assay: direct ELISA on coated rhβIG-H3, anti-human IgG-HRP
recombinant human βIG-H3 [2] = target: T1, recombinant human βIG-H3; assay: SPR Biacore T200, antibody captured via anti-human IgG, rhbIG-H3 as analyte, 1:1 fit, mean of n=3
Description: (§1) The assays were conducted using Biacore T200 instrument. It was performed in 2 steps: [0324] The first step, called suitability test, was aiming at determining the optimal conditions to run the assay: here, best sensor chip and running buffer conditions are assessed to defined best signal/noise ratio. [0325] The second step is the run itself that was performed in triplicate to ensure reproducibility and robustness of the results.
(§2) For the first step, 2 sensors and various buffer conditions were assessed using the parental and Chimeric 18B3 mAbs as a reference. It was then defined that sensor Chip C1 was the most appropriate, and buffer containing 300 mM NaCl and 0.25 mg/mL BSA was reducing the non-specific binding and increased the signal.
(§3) Rate constants (kₐ, kd) and equilibrium dissociation constants (KD) of rhbIG-H3 interaction with six antibodies determined by SPR. Experimental data were fitted to a 1:1 binding model. Listed are mean values ±SD of n=3 independent experiments.

recombinant human βIG-H3 [3] = target: T1, recombinant human βIG-H3; assay: SPR single cycle kinetics, mAb captured via anti-human IgG (Fc) on CM5, hβIG-H3 5-100 nM as analyte, 1:1 model; SCK2 Fc4
Description: (§4) Anti-Human IgG (Fc) antibody is chemically grafted on a CM5 sensorchip using amine coupling according to the Cytivia 22064888AF notice. Briefly, surface is first activated by injection of a NHS-EDC mixture. Then, several injections (3 on the 10 available on the kit) of Anti-Human IgG (25 μg/ml in immobilization buffer) adjusting the contact time are performed. Finally, the surfaces are deactivated with ethanolamine 1M pH 8.5.
(§5) A negative control Ab is immobilized on sensor flowcell 1 (Fc 1) and positive control (chimeric 18B3 mAB) on Fc 2. 18B3 variants Abs are immobilized on Fc3 and Fc4:
(§6) Injection of increasing concentrations (5; 10; 25; 50; 100 nM) of antigen (hβIG-H3) during 180 s is performed on each flowcell. Short dissociations are performed in RB between each antigen concentration. After injection of the highest antigen concentration (100 nM), a dissociation in RB is recorded during 3600 s. [0348] Three similar cycles with five injections of RB are carried out before the cycle of Antigen in order to perform double subtraction procedure (Blank run). [0349] Three similar cycles with five injection of RB and a dissociation time of 600 s are performed before the blank runs in order to stabilize the system (Startup run).

recombinant human βIG-H3 [4] = target: T1, recombinant human βIG-H3; assay: SPR single cycle kinetics, mAb captured via anti-human IgG (Fc) on CM5, hβIG-H3 5-100 nM as analyte, 1:1 model; Fc4, first of two runs (run label misplaced in print)
Description: as §4, §5, §6

recombinant human βIG-H3 [5] = target: T1, recombinant human βIG-H3; assay: SPR single cycle kinetics, mAb captured via anti-human IgG (Fc) on CM5, hβIG-H3 5-100 nM as analyte, 1:1 model; SCK1 Fc3
Description: as §4, §5, §6

recombinant human βIG-H3 [6] = target: T1, recombinant human βIG-H3; assay: SPR single cycle kinetics, mAb captured via anti-human IgG (Fc) on CM5, hβIG-H3 5-100 nM as analyte, 1:1 model; SCK2 Fc3
Description: as §4, §5, §6

recombinant human βIG-H3 [7] = target: T1, recombinant human βIG-H3; assay: SPR single cycle kinetics, mAb captured via anti-human IgG (Fc) on CM5, hβIG-H3 5-100 nM as analyte, 1:1 model; SCK1 Fc2
Description: as §4, §5, §6

recombinant human βIG-H3 [8] = target: T1, recombinant human βIG-H3; assay: SPR single cycle kinetics, mAb captured via anti-human IgG (Fc) on CM5, hβIG-H3 5-100 nM as analyte, 1:1 model; SCK2 Fc2
Description: as §4, §5, §6

recombinant human βIG-H3 [9] = target: T1, recombinant human βIG-H3; assay: SPR Biacore T200, antibody captured via anti-mouse IgG, rhbIG-H3 as analyte, 1:1 fit, mean of n=3
Description: as §1, §2, §3

recombinant human βIG-H3 [10] = target: T1, recombinant human βIG-H3; assay: direct ELISA on coated rhβIG-H3

Binder | ELISA Titer (recombinant human βIG-H3 [1]) [µg/mL] | Kd (recombinant human βIG-H3 [2]) [pM] | koff (recombinant human βIG-H3 [2]) [s⁻¹] | kon (recombinant human βIG-H3 [2]) [M⁻¹ s⁻¹] | binding result (recombinant human βIG-H3 [10]) | further results
B1 | 0.047 | 535 | 0.000659 | 1.23e+06 |  | 
B2 | 0.04 | 476 | 0.000583 | 1.23e+06 |  | 
B3 | 0.0036 |  |  |  |  | Kd (recombinant human βIG-H3 [3]): 171 pM; koff (recombinant human βIG-H3 [3]): 0.000478 s⁻¹; kon (recombinant human βIG-H3 [3]): 2.79e+06 M⁻¹ s⁻¹; Kd (recombinant human βIG-H3 [4]): 120 pM; koff (recombinant human βIG-H3 [4]): 0.000559 s⁻¹; kon (recombinant human βIG-H3 [4]): 4.66e+06 M⁻¹ s⁻¹
B4 | 0.0038 |  |  |  |  | Kd (recombinant human βIG-H3 [5]): 124 pM; koff (recombinant human βIG-H3 [5]): 0.000798 s⁻¹; kon (recombinant human βIG-H3 [5]): 6.46e+06 M⁻¹ s⁻¹; Kd (recombinant human βIG-H3 [6]): 169 pM; koff (recombinant human βIG-H3 [6]): 0.000659 s⁻¹; kon (recombinant human βIG-H3 [6]): 3.9e+06 M⁻¹ s⁻¹
B5 | 0.046 | 490 | 0.000707 | 1.45e+06 |  | 
B6 | 0.041 | 482 | 0.000726 | 1.5e+06 |  | 
B7 | 0.03 | 187 | 0.000247 | 1.32e+06 |  | Kd (recombinant human βIG-H3 [7]): 62.7 pM; koff (recombinant human βIG-H3 [7]): 0.00013 s⁻¹; kon (recombinant human βIG-H3 [7]): 2.06e+06 M⁻¹ s⁻¹; Kd (recombinant human βIG-H3 [8]): 85.4 pM; koff (recombinant human βIG-H3 [8]): 0.00016 s⁻¹; kon (recombinant human βIG-H3 [8]): 1.87e+06 M⁻¹ s⁻¹
B8 |  |  |  |  |  | Kd (recombinant human βIG-H3 [9]): 411 pM; koff (recombinant human βIG-H3 [9]): 0.000234 s⁻¹; kon (recombinant human βIG-H3 [9]): 572000 M⁻¹ s⁻¹
B9 |  |  |  |  | binds | 
B10 |  |  |  |  | binds | 
B11 |  |  |  |  | binds | 
B12 |  |  |  |  | binds | 
B13 |  |  |  |  | binds | 
